{"source": "patent US20110311535A1", "binders": {"B1": {"name": "murine NKG2D-Fc fusion protein (IgG2a-IEGR-NKG2D construct) (Fc fusion, mouse, not shown: a dimerising Fc or GST)", "chain": "IEGRETFQPVLCNKEVPVSSREGYCGPCPNNWICHRNNCYQFFNEEKTWNQSQASCLSQNSSLLKIYSKEEQDFLKLVKSYHWMGLVQIPANGSWQWEDGSSLSYNQLTLVEIPKGSCAVYGSSFKAYTEDCANLNTYICMKRAV"}}, "molecular_target": "NKG2D ligands expressed on YAC-1 cells", "assay": "cell-based or functional assay"}
{"binder": "B1", "values": [{"measurement": "ADCC by thioglycollate-elicited macrophages (percent of target cells)", "value": 55, "unit": "%"}, {"measurement": "complement-dependent lysis of YAC-1 cells", "value": 80, "unit": "%"}]}
